From paper PMC3902906

Tests used:
[1] = molecular target: CsoR^Sl R129A (copper sensitive operon repressor from Streptomyces lividans, R129A mutant) (Streptomyces lividans 1326); assay: SEC; analytical gel filtration column, retention volume of the purified mutant protein alone; data not shown
[2] = molecular target: CsoR (CsoRSl) wild type (Streptomyces lividans 1326) (UniProt D6EK73); assay: ITC; conditions: ITC: 10 mM HEPES, 150 mM NaCl, pH 7.5, 25 C, 100 uM DNA into 10 uM CsoR tetramer, EMSA: same buffer, room temperature, 30 min, 6% PAGE in TBE, SEC: same buffer
[3] = molecular target: CsoR^Sl R57A (copper sensitive operon repressor from Streptomyces lividans, R57A mutant) (Streptomyces lividans 1326); assay: SEC; analytical gel filtration column, retention volume of the purified mutant protein alone; data not shown
[4] = molecular target: CsoR^Sl Q81A (copper sensitive operon repressor from Streptomyces lividans, Q81A mutant) (Streptomyces lividans 1326); assay: as above
[5] = molecular target: CsoR^Sl R132A (copper sensitive operon repressor from Streptomyces lividans, R132A mutant) (Streptomyces lividans 1326); assay: as above
[6] = molecular target: CsoR^Sl R54A (copper sensitive operon repressor from Streptomyces lividans, R54A mutant) (Streptomyces lividans 1326); assay: as above

Substance | Kd [2] [nM] | also measured
CsoR^Sl R129A (copper sensitive operon repressor from Streptomyces lividans, R129A mutant) (natural protein) | – | stoichiometry N [1]: 4
TACCCCCTAGGGGTAT (double strand) [copZA1-CON] | 971 | –
CsoR^Sl R57A (copper sensitive operon repressor from Streptomyces lividans, R57A mutant) (natural protein) | – | stoichiometry N [3]: 4
TATACCCCCTAGGGGTA (double strand) [copZA2-CON] | 107 | –
CsoR^Sl Q81A (copper sensitive operon repressor from Streptomyces lividans, Q81A mutant) (natural protein) | – | stoichiometry N [4]: 4
CGTTGGGTACCCCCTAGGGGTATACATGG (double strand) [copZA1-EXT] | – | Kd ([2]; apo, reverse titration (protein into DNA), N 0.86): 112 nM
CGTTGGGTACCCCCTAGGGGTATATATGG (double strand) [copZA1-GTA down] | 87 | –
CGTTGGATACCCCCTAGGGGTATACATGG (double strand) [copZA1-GTA up] | 96 | –
GCCTTTATACCCCCTAGGGGTAAGGTGGG (double strand) [copZA2-EXT] | 57 | –
CsoR^Sl R132A (copper sensitive operon repressor from Streptomyces lividans, R132A mutant) (natural protein) | – | stoichiometry N [5]: 4
CGGACAAATACCCCTGGTGGGTATATATGG (double strand) [csoR-EXT] | 74 | –
ATACCCCTGGTGGGTATAT (double strand) [csoR-CON] | 120 | –
CsoR^Sl R54A (copper sensitive operon repressor from Streptomyces lividans, R54A mutant) (natural protein) | – | stoichiometry N [6]: 4
